Substrate: Nc1ncnc2c1ncn2[C@@H]1O[C@H](COP(=O)(O)OP(=O)(O)OP(=O)(O)O)[C@@H](O)[C@H]1O
Assay: coupled NADH fluorescence ATPase assay
Type: biochemical, Caulobacter vibrioides
Conditions: no ssDNA, FITC-casein present, 0.1 μM Lon6, Mg2+, pH 8.0, 30 °C
Source text: coupled NADH fluorescence ATPase assay on Lon

B1: Lon (Caulobacter vibrioides NA1000) (protein)
chain: MSELRTLPVLPLRDIVVFPHMVVPLFVGRDKSVRALEEVMRGDKQILLVTQKNSADDDPAPGDIFEVGVLATVLQLLKLPDGTVKVLVEGKARAAVVSFTDQESYYEAQIGEVSEDDGAGPEAEALSRAVVEQFENYVKLNKKVPPEALASIPQIAEPGKLADSIAAHLSVKIGDKQNLLEIFDVVKRLEKVFALMEGEISVLQVEKKIRSRVKRQMEKTQREYYLNEQMKAIQRELGDPDDARDELIDLEKRIKKTKLSKEARTKAESELKKLRNMSPMSAESTVVRNYLDWLLSIPWGKAKTKKIDLVESEGILDADHYGLEKVKERILEYLAVQARTNSLKGPILCLVGPPGVGKTSLGKSIAKATGREFVRMSLGGVRDEAEIRGHRRTYIGSMPGKVVQSMKKAKTTNAFVLLDEIDKMGSDYRGDPASALLEVLDPSQNSTFGDHYLEVDYDLSQVMFVTTANSLNMPQPLLDRMEIIRIPGYTEDEKLEIAKRHILPKLAKDHGLKPAEFIVPDKAIRDLIRYYTREAGVRSLERELGALARKTVRDLAREKVASITIDDERLAKYAGVKKYRYGETDEVDQVGIVTGLAWTEFGGDILTIEAVKMPGKGRMQITGNLKDVMKESIAAANSYVRSRALQFGIKPPVFEKTDVHIHVPDGATPKDGPSAGIAMALAMVSVLTGIPIRKDIAMTGEITLRGRVTAIGGLKEKLLAALRSGVKTVLIPQENEKDLADVPQTVKDGLEIIPVSTVDEVLKHALTGPLTPVEWNEAEEPITTSAKKDDGDSDAMLTH
notes: Caulobacter Lon from pBAD33-Lon, purified on hydroxyapatite and MonoQ, no tag mentioned
Hill fit n 1.2, brackets 95% CI
  Km: 92[67–135] μM

B2: Lon (Caulobacter vibrioides NA1000; K301E/K303E/K305E/K306E) (protein)
chain: MSELRTLPVLPLRDIVVFPHMVVPLFVGRDKSVRALEEVMRGDKQILLVTQKNSADDDPAPGDIFEVGVLATVLQLLKLPDGTVKVLVEGKARAAVVSFTDQESYYEAQIGEVSEDDGAGPEAEALSRAVVEQFENYVKLNKKVPPEALASIPQIAEPGKLADSIAAHLSVKIGDKQNLLEIFDVVKRLEKVFALMEGEISVLQVEKKIRSRVKRQMEKTQREYYLNEQMKAIQRELGDPDDARDELIDLEKRIKKTKLSKEARTKAESELKKLRNMSPMSAESTVVRNYLDWLLSIPWGEAETEEIDLVESEGILDADHYGLEKVKERILEYLAVQARTNSLKGPILCLVGPPGVGKTSLGKSIAKATGREFVRMSLGGVRDEAEIRGHRRTYIGSMPGKVVQSMKKAKTTNAFVLLDEIDKMGSDYRGDPASALLEVLDPSQNSTFGDHYLEVDYDLSQVMFVTTANSLNMPQPLLDRMEIIRIPGYTEDEKLEIAKRHILPKLAKDHGLKPAEFIVPDKAIRDLIRYYTREAGVRSLERELGALARKTVRDLAREKVASITIDDERLAKYAGVKKYRYGETDEVDQVGIVTGLAWTEFGGDILTIEAVKMPGKGRMQITGNLKDVMKESIAAANSYVRSRALQFGIKPPVFEKTDVHIHVPDGATPKDGPSAGIAMALAMVSVLTGIPIRKDIAMTGEITLRGRVTAIGGLKEKLLAALRSGVKTVLIPQENEKDLADVPQTVKDGLEIIPVSTVDEVLKHALTGPLTPVEWNEAEEPITTSAKKDDGDSDAMLTH
notes: as for B1
Lon4E, Hill fit n 1.6, brackets 95% CI
  Km: 28[23–28] μM

B3: Lon (Caulobacter vibrioides NA1000; K301A/K303A/K305A/K306A) (protein)
chain: MSELRTLPVLPLRDIVVFPHMVVPLFVGRDKSVRALEEVMRGDKQILLVTQKNSADDDPAPGDIFEVGVLATVLQLLKLPDGTVKVLVEGKARAAVVSFTDQESYYEAQIGEVSEDDGAGPEAEALSRAVVEQFENYVKLNKKVPPEALASIPQIAEPGKLADSIAAHLSVKIGDKQNLLEIFDVVKRLEKVFALMEGEISVLQVEKKIRSRVKRQMEKTQREYYLNEQMKAIQRELGDPDDARDELIDLEKRIKKTKLSKEARTKAESELKKLRNMSPMSAESTVVRNYLDWLLSIPWGAAATAAIDLVESEGILDADHYGLEKVKERILEYLAVQARTNSLKGPILCLVGPPGVGKTSLGKSIAKATGREFVRMSLGGVRDEAEIRGHRRTYIGSMPGKVVQSMKKAKTTNAFVLLDEIDKMGSDYRGDPASALLEVLDPSQNSTFGDHYLEVDYDLSQVMFVTTANSLNMPQPLLDRMEIIRIPGYTEDEKLEIAKRHILPKLAKDHGLKPAEFIVPDKAIRDLIRYYTREAGVRSLERELGALARKTVRDLAREKVASITIDDERLAKYAGVKKYRYGETDEVDQVGIVTGLAWTEFGGDILTIEAVKMPGKGRMQITGNLKDVMKESIAAANSYVRSRALQFGIKPPVFEKTDVHIHVPDGATPKDGPSAGIAMALAMVSVLTGIPIRKDIAMTGEITLRGRVTAIGGLKEKLLAALRSGVKTVLIPQENEKDLADVPQTVKDGLEIIPVSTVDEVLKHALTGPLTPVEWNEAEEPITTSAKKDDGDSDAMLTH
notes: as for B1
Lon4A, Hill fit n 1.2, brackets 95% CI
  Km: 206[134–707] μM

From paper PMC11719849, “Allosteric modulation of the Lon protease via ssDNA binding and local charge changes” (The Journal of Biological Chemistry, 2024)
